Source: publication PMC9481563, “Structural insights into the pSer/pThr dependent regulation of the SHP2 tyrosine phosphatase in insulin and CD28 signaling” (Nature Communications, 2022)
Where no end group is shown, it is not given here. [ ]: non-standard residue; d: D form. pY = N[C@@H](Cc1ccc(OP(=O)(O)O)cc1)C(=O)O; pT = C[C@@H](OP(=O)(O)O)[C@H](N)C(=O)O; pS = N[C@@H](COP(=O)(O)O)C(=O)O

B1: p0CD28, CD28 peptide with phosphotyrosine only (pY191) (peptide)
peptide: RSRLLHSD[pY]MNMTPRR
notes: human CD28 T-cell costimulatory receptor, cytoplasmic YMNMTP motif, 16 amino acids; also called singly Tyr phosphorylated CD28 peptide; source: synthetic peptide, bought: GeneScript Inc
B2: p0IRS1, IRS1 peptide with phosphotyrosine only (pY632) (peptide)
peptide: GRKGSGD[pY]MPMSPKS
notes: human IRS1, 2nd YxxMSP motif around Y632, 15 amino acids; also called singly phosphorylated model peptide; pTyr peptide; source: synthetic peptide, bought: GeneScript Inc
B3: ppCD28, CD28 peptide dually phosphorylated (pY191 + pT195) (peptide)
peptide: RSRLLHSD[pY]MNM[pT]PRR
notes: human CD28 T-cell costimulatory receptor, cytoplasmic YMNMTP motif, 16 amino acids; also called pY191-pT195 peptide; source: synthetic peptide, bought: GeneScript Inc
B4: ppIRS1, IRS1 peptide dually phosphorylated (pY632 + pS636) (peptide)
peptide: GRKGSGD[pY]MPM[pS]PKS
notes: human IRS1, 2nd YxxMSP motif around Y632, 15 amino acids; also called pY632-pS636 peptide; dually phosphorylated model peptide; source: synthetic peptide, bought: GeneScript Inc

Tests used:
Assay in all cases: fluorescence polarisation; competitive titration: labelled CF-ppIRS1 and protein both fixed (50-80% saturation), unlabelled competitor peptide varied; triplicates; Kd from cubic fit
Settings in all cases: both partners purified
[1] = molecular target: T1, PIK3R1 (p85) N-terminal SH2 domain (321-433) (human, UniProt P27986 321-433)
T1 construct: PIK3R1 regulatory subunit of PI3K (p85), nSH2 domain, cloned from a HEK293T cDNA pool, UniProt P27986, residues 321-433; also called nSH2; PI3KR1 nSH2; source: E. coli BL21 (DE3), purified (Ni-NTA, anion exchange)

[2] = molecular target: T2, PIK3R1 (p85) C-terminal SH2 domain (614-724) (human, UniProt P27986 614-724)
T2 construct: PIK3R1 regulatory subunit of PI3K (p85), cSH2 domain, cloned from a HEK293T cDNA pool, UniProt P27986, residues 614-724; also called cSH2; PI3KR1 cSH2; source: E. coli BL21 (DE3), purified (Ni-NTA, anion exchange)

[3] = molecular target: T3, PTPRε first catalytic domain, inactive C335S mutant (107-399), MBP-tagged (human, UniProt P23469 107-399, C335S)
T3 construct: PTPRε receptor tyrosine phosphatase, first phosphatase domain, cloned from a HEK293T cDNA pool, UniProt P23469, residues 107-399; first cloned into pBH4 (N-terminal His6); also called receptor tyrosine phosphatase PTPRε; source: E. coli BL21 (DE3), purified (Ni-NTA, anion exchange)
T3 sequence (P23469 107-399 C335S): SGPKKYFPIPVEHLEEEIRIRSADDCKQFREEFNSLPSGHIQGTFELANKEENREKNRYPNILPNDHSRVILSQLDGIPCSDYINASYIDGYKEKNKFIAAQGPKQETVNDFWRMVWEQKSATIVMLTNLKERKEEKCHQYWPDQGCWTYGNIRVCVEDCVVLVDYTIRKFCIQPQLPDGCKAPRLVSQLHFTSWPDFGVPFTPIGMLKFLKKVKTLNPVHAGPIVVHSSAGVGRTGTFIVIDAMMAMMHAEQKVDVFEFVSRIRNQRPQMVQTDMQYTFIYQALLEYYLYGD

T2 sequence (P27986 614-724): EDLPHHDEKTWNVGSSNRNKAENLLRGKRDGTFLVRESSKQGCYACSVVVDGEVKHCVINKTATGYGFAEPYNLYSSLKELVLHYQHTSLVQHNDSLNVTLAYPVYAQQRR
T1 sequence (P27986 321-433): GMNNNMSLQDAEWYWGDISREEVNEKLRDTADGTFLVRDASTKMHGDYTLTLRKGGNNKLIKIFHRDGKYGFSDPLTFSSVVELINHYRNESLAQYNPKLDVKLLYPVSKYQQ

| Binder | binding result [1] | binding result [2] | binding result [3] |
| --- | --- | --- | --- |
| B1 | binds | binds | binds |
| B2 | binds | binds | – |
| B3 | binds | binds | binds |
| B4 | binds | binds | – |
